Experimental data: the Human Domainome abundance scans (Beltran et al. 2025)
± gives the uncertainty stated by the source.

B1: Heterogeneous nuclear ribonucleoprotein U-like protein 2, residues 1 to 40; numbered along this chain, Q1KMD3 (parent)
chain: MEVKRLKVTELRSELQRRGLDSRGLKVDLAQRLQEALDAE
B2: Tripartite motif-containing protein 6, residues 93 to 134; numbered along this chain, Q9C030 (parent)
chain: KAVLCADHGEKLQLFCQEDGKVICWLCERSQEHRGHHTFLVE

Variants of: B1
Experiment: abundance fitness (aPCA) (normalised: wild type 0, dead -1); higher = more abundant; growth selection in yeast, the domain comes from the species named
Settings: Homo sapiens

Point of comparison: L6P, abundance fitness -0.48 ± 0.074. Against it:
- L6H — within error, -0.496 ± 0.12
- L6K — higher, -0.144 ± 0.089
- L6C — lower, -1.02 ± 0.13
- L6N — higher, -0.236 ± 0.14
- L6Q — higher, -0.198 ± 0.075
- L6F — higher, -0.063 ± 0.15
- L6R — within error, -0.572 ± 0.052

Variants of: B2
Experiment: as above
Settings: Homo sapiens

Point of comparison: KAVLCADHGEKLQLFCQEDGKVIYWLCERSQEHRGHHTFLVE [C24Y], abundance fitness -0.725 ± 0.34. Against it:
- KAVLCADHGEKLQLFCQEDGKVICWLCERSQEHRGHSTFLVE [H37S] — higher, -0.123 ± 0.17
- KAVLCADHGEKLQFFCQEDGKVICWLCERSQEHRGHHTFLVE [L14F] — higher, -0.064 ± 0.093
- KAVLCADHGEKLQHFCQEDGKVICWLCERSQEHRGHHTFLVE [L14H] — higher, 0.122 ± 0.084
- KAVLCADHGEKLQRFCQEDGKVICWLCERSQEHRGHHTFLVE [L14R] — higher, 0.106 ± 0.055
- KAVLCADHGEKIQLFCQEDGKVICWLCERSQEHRGHHTFLVE [L12I] — within error, -0.231 ± 0.16
- KAVLCADHGEKLQLKCQEDGKVICWLCERSQEHRGHHTFLVE [F15K] — higher, 0.044 ± 0.067
- KAVLCADHGEKLQLDCQEDGKVICWLCERSQEHRGHHTFLVE [F15D] — within error, -0.329 ± 0.33
- KAVLCADHGEKLQLQCQEDGKVICWLCERSQEHRGHHTFLVE [F15Q] — higher, 0.082 ± 0.061
- KAVLCADHGEKLQLFCQEDGKVICWLCERSQEHRGHHTFLVT [E42T] — higher, 0.216 ± 0.23
- KAVLCADHGEKLELFCQEDGKVICWLCERSQEHRGHHTFLVE [Q13E] — higher, 0.142 ± 0.062
- KAVLCADHGEKLSLFCQEDGKVICWLCERSQEHRGHHTFLVE [Q13S] — higher, 0.058 ± 0.045
- KAVLCADHGEKLTLFCQEDGKVICWLCERSQEHRGHHTFLVE [Q13T] — higher, 0.124 ± 0.054
- KAVLCADHGEKLRLFCQEDGKVICWLCERSQEHRGHHTFLVE [Q13R] — higher, -0.135 ± 0.047
- KAVLCADHGEKLKLFCQEDGKVICWLCERSQEHRGHHTFLVE [Q13K] — higher, 0.128 ± 0.11
- KAVLCAQHGEKLQLFCQEDGKVICWLCERSQEHRGHHTFLVE [D7Q] — higher, 0.172 ± 0.071
- KAVLCADHGEKLQLFCQEDGKVICWLCERSQECRGHHTFLVE [H33C] — within error, -0.246 ± 0.36
- KAVLCADHGEKLQLFCQEDGKVICWLCERSQEGRGHHTFLVE [H33G] — within error, -0.643 ± 0.1
- KAVLCADHGEKLQLFCQEAGKVICWLCERSQEHRGHHTFLVE [D19A] — within error, -0.807 ± 0.35
- KAVLCADHGEKLQLFCQEDGKVLCWLCERSQEHRGHHTFLVE [I23L] — within error, -0.361 ± 0.074
- KAVLCADPGEKLQLFCQEDGKVICWLCERSQEHRGHHTFLVE [H8P] — within error, -0.819 ± 0.094
- KAVLCADHGEKLQLFCQVDGKVICWLCERSQEHRGHHTFLVE [E18V] — higher, -0.261 ± 0.084
- KAVLCADHGEKLQLFCQEDGKVICWLCERSQEHRMHHTFLVE [G35M] — within error, -0.397 ± 0.094
- KAVLCADHGEKLQLFCQEDGKVICWLCERSQEHRLHHTFLVE [G35L] — higher, -0.202 ± 0.065
- KAVLCADHGEKLQLFCQEDGKVICWLCERSQEHRAHHTFLVE [G35A] — higher, -0.116 ± 0.05
- KAVLCADHGEKLQLFCQEDGKVICWLCERSQEHRGHHTFLSE [V41S] — higher, -0.051 ± 0.076
- KAVLCADHGEKLQLFCQEDGKVICWLCERSQEHRGHHTFLGE [V41G] — higher, -0.11 ± 0.088
- KAVLCADHGEKLQLFCQEDGKVICWLCSRSQEHRGHHTFLVE [E28S] — higher, -0.116 ± 0.059
- KAVLCADHGEKLQLFCQEDGKVICWLCQRSQEHRGHHTFLVE [E28Q] — higher, -0.124 ± 0.061
- LAVLCADHGEKLQLFCQEDGKVICWLCERSQEHRGHHTFLVE [K1L] — within error, -0.439 ± 0.086
- YAVLCADHGEKLQLFCQEDGKVICWLCERSQEHRGHHTFLVE [K1Y] — higher, -0.01 ± 0.17
- GAVLCADHGEKLQLFCQEDGKVICWLCERSQEHRGHHTFLVE [K1G] — higher, -0.193 ± 0.043
- MAVLCADHGEKLQLFCQEDGKVICWLCERSQEHRGHHTFLVE [K1M] — higher, -0.156 ± 0.082
- KAVLCADHGEKLQLFCQEDGKVICWLKERSQEHRGHHTFLVE [C27K] — within error, -1.14 ± 0.22
- KAVLCADHGEKLQLFCQEDGKVICWLCERKQEHRGHHTFLVE [S30K] — within error, -0.307 ± 0.11
- KAVLCADHGEKLQLFCQEDGKVIKWLCERSQEHRGHHTFLVE [C24K] — within error, -0.615 ± 0.31
- KAVLCADHGEKLQLFCQEDGKVIGWLCERSQEHRGHHTFLVE [C24G] — within error, -1.16 ± 0.12
- KAVLCADHQEKLQLFCQEDGKVICWLCERSQEHRGHHTFLVE [G9Q] — higher, -0.032 ± 0.048
- KAVLCADHHEKLQLFCQEDGKVICWLCERSQEHRGHHTFLVE [G9H] — within error, -0.287 ± 0.21
- KAVLCADHAEKLQLFCQEDGKVICWLCERSQEHRGHHTFLVE [G9A] — higher, -0.061 ± 0.037
- KAVSCADHGEKLQLFCQEDGKVICWLCERSQEHRGHHTFLVE [L4S] — higher, -0.217 ± 0.059
- KAVVCADHGEKLQLFCQEDGKVICWLCERSQEHRGHHTFLVE [L4V] — higher, 0.011 ± 0.05
- KAVECADHGEKLQLFCQEDGKVICWLCERSQEHRGHHTFLVE [L4E] — higher, -0.126 ± 0.066
- KAVLCEDHGEKLQLFCQEDGKVICWLCERSQEHRGHHTFLVE [A6E] — higher, -0.244 ± 0.11
- KKVLCADHGEKLQLFCQEDGKVICWLCERSQEHRGHHTFLVE [A2K] — higher, 0.133 ± 0.068
- KLVLCADHGEKLQLFCQEDGKVICWLCERSQEHRGHHTFLVE [A2L] — higher, -0.013 ± 0.06
- KTVLCADHGEKLQLFCQEDGKVICWLCERSQEHRGHHTFLVE [A2T] — higher, 0.136 ± 0.046
- KYVLCADHGEKLQLFCQEDGKVICWLCERSQEHRGHHTFLVE [A2Y] — higher, -0.153 ± 0.11
- KIVLCADHGEKLQLFCQEDGKVICWLCERSQEHRGHHTFLVE [A2I] — higher, -0.018 ± 0.12
- KAVLCADHGEKLQLFGQEDGKVICWLCERSQEHRGHHTFLVE [C16G] — higher, -0.304 ± 0.038
- KAVLCADHGEKLQLFRQEDGKVICWLCERSQEHRGHHTFLVE [C16R] — within error, -0.354 ± 0.042
- KAVLCADHGEKLQLFKQEDGKVICWLCERSQEHRGHHTFLVE [C16K] — higher, -0.275 ± 0.063
- KAVLCADHGEKLQLFCIEDGKVICWLCERSQEHRGHHTFLVE [Q17I] — higher, 0.376 ± 0.25
- KAVLCADHGEKLQLFCLEDGKVICWLCERSQEHRGHHTFLVE [Q17L] — within error, -0.364 ± 0.086
- KARLCADHGEKLQLFCQEDGKVICWLCERSQEHRGHHTFLVE [V3R] — higher, -0.273 ± 0.057
- KAYLCADHGEKLQLFCQEDGKVICWLCERSQEHRGHHTFLVE [V3Y] — higher, -0.153 ± 0.21
- KAELCADHGEKLQLFCQEDGKVICWLCERSQEHRGHHTFLVE [V3E] — higher, -0.067 ± 0.09
- KAQLCADHGEKLQLFCQEDGKVICWLCERSQEHRGHHTFLVE [V3Q] — within error, -0.306 ± 0.092
- KAGLCADHGEKLQLFCQEDGKVICWLCERSQEHRGHHTFLVE [V3G] — higher, 0.127 ± 0.041
- KACLCADHGEKLQLFCQEDGKVICWLCERSQEHRGHHTFLVE [V3C] — higher, 0.098 ± 0.13
- KAVLCADHGEKLQLFCQEDGKAICWLCERSQEHRGHHTFLVE [V22A] — higher, -0.047 ± 0.13
- KAVLCADHGEPLQLFCQEDGKVICWLCERSQEHRGHHTFLVE [K11P] — higher, 0.315 ± 0.24
- KAVLCADHGELLQLFCQEDGKVICWLCERSQEHRGHHTFLVE [K11L] — higher, -0.2 ± 0.18
- KAVLCADHGEWLQLFCQEDGKVICWLCERSQEHRGHHTFLVE [K11W] — higher, 0.339 ± 0.15
- KAVLCADHGEKLQLFCQEDGKVICWLCERSQEHRGHHTFTVE [L40T] — higher, 0.041 ± 0.085
- KAVLCADHGEKLQLFCQEDGKVICWLCERSQEHRGHHTFVVE [L40V] — higher, -0.072 ± 0.068
- KAVLCADHGEKLQLFCQEDGKVICWLCERSQEHRGHHTFQVE [L40Q] — higher, 0.224 ± 0.12
- KAVLCADHGEKLQLFCQEDGKVICDLCERSQEHRGHHTFLVE [W25D] — higher, 0.067 ± 0.11
- KAVLCADHGEKLQLFCQEDGKVICWLCERSQEHRGHHTGLVE [F39G] — higher, 0.093 ± 0.053
- KAVLCADHGEKLQLFCQEDGKVICWLCERSQEHRGHHTYLVE [F39Y] — higher, 0.161 ± 0.19
- KAVLCADHGEKLQLFCQEDGKVICWLCERSEEHRGHHTFLVE [Q31E] — higher, -0.159 ± 0.08
- KAVLCADHGEKLQLFCQEDGKVICWLCERSHEHRGHHTFLVE [Q31H] — higher, -0.125 ± 0.083
- KAVLGADHGEKLQLFCQEDGKVICWLCERSQEHRGHHTFLVE [C5G] — within error, -0.664 ± 0.054
- KAVLEADHGEKLQLFCQEDGKVICWLCERSQEHRGHHTFLVE [C5E] — within error, -0.615 ± 0.064
- KAVLRADHGEKLQLFCQEDGKVICWLCERSQEHRGHHTFLVE [C5R] — within error, -0.978 ± 0.092
- KAVLDADHGEKLQLFCQEDGKVICWLCERSQEHRGHHTFLVE [C5D] — within error, -0.807 ± 0.21
- KAVLAADHGEKLQLFCQEDGKVICWLCERSQEHRGHHTFLVE [C5A] — within error, -1.06 ± 0.14
- KAVLCADHGEKLQLFCQEDGKVICWLCERSQEHRGRHTFLVE [H36R] — within error, -0.481 ± 0.052
- KAVLCADHGEKLQLFCQEDGKVICWLCERSQEHRGLHTFLVE [H36L] — within error, -0.523 ± 0.074
- KAVLCADHGEKLQLFCQEDGKVICWLCERSQEHRGDHTFLVE [H36D] — within error, -0.399 ± 0.11
- KAVLCADHGEKLQLFCQEDGKVICWLCERSQEHLGHHTFLVE [R34L] — higher, 0.092 ± 0.083
- KAVLCADHGEKLQLFCQEDGKVICWLCERSQEHYGHHTFLVE [R34Y] — higher, 0.155 ± 0.1
- KAVLCADHGEKLQLFCQEDGKVICWLCERSQEHKGHHTFLVE [R34K] — higher, -0.111 ± 0.084
- KAVLCADHGEKLQLFCQEDGKVICWLCERSQEHEGHHTFLVE [R34E] — higher, -0.05 ± 0.076
